The values that follow come from publication PMC6345439, “INDETERMINATE-DOMAIN 4 (IDD4) coordinates immune responses with plant-growth in Arabidopsis thaliana”.

The target of series [1] is T1, MBP-IDD4-DD (phospho-mimic, truncated) (Arabidopsis thaliana, UniProt Q8GYC1 20-219, S73D;T130D).
T1 sequence: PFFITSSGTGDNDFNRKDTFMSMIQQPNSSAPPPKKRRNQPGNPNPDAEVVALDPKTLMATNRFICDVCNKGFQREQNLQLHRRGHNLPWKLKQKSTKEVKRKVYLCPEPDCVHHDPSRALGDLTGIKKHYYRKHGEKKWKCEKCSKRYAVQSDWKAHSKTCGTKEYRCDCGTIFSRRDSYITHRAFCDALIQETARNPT
Briefly: EMSA; LightShift Chemiluminescent EMSA kit instructions; 20 fmol biotinylated DNA, 1 ug protein; buffer, salt, pH and temperature not stated. As to conditions: protein: recombinant; tags: MBP; label: 3' biotin; blunt. Background: A gel shift assay detects complexes by their altered migration in electrophoresis.

Series [2] deals with T1, MBP-IDD4-DD (phospho-mimic, truncated). Briefly: competition; unlabeled competitor up to 0.5 uM (100x excess) against N1; LightShift Chemiluminescent EMSA kit instructions; 20 fmol biotinylated DNA, 1 ug protein; buffer, salt, pH and temperature not stated. The following applies: protein: recombinant; tags: MBP; blunt.

B1: SAGT1 promoter ID1 probe (395s/395as) (dsDNA)
DNA 1: ACATGGTAGACAAAATAATGAAGCCAAAATTAATA
DNA 2: TATTAATTTTGGCTTCATTATTTTGTCTACCATGT
As for B1, in series [1], the binding result is “binds”.

B2: SAGT1 promoter ID1 competitor, unlabeled (spe) (dsDNA)
DNA 1: ACATGGTAGACAAAATAATGAAGCCAAAATTAATA
DNA 2: TATTAATTTTGGCTTCATTATTTTGTCTACCATGT
Consider B2, for which the binding result in series [2] is on record as “binds”.
